Data: patent US20050238685A1 (published 2005)

Legend:
[1] = molecular target: T1, bovine pancreas trypsin (bovine, UniProt P00760 24-246); test: enzyme on SC3-coated TEFLON, rinsed; activity by spectrophotometry, constant after removal of the surface
T1 construct: Bought enzyme; also called 25 kD trypsin (bovine pancreas)
Description: The surface was first coated with SC3 hydrophobin by immersion in the protein aqueous solution (0.3 mg/mL) during approximately 30 minutes. The obtained modified surface was then immersed in an aqueous enzyme solution during approximately 30 minutes. After each step, the TEFLON™ surface was rinsed with an adequate buffer solution. […] The functionalized TEFLON® was stored at 4° C. in an Eppendorf tube containing a buffer solution.

[2] = molecular target: BSA (bovine serum albumin) (bovine, UniProt P02769 25-607); test: protein on hydrophobin-coated TEFLON sheets, rinsed; TFA extraction and SDS-PAGE
Excerpt: BSA (bovine serum albumin) and fibronectin were immobilized on coated TEFLON™ sheets. […] The sheets were removed from the hydrophobin solution and were immediately washed with large amounts of water to remove any unbound hydrophobin. […] The presence of BSA or fibronectin on bare and coated TEFLON™ was detected extracting all protein with TFA, evaporating the TFA and loading the sample on SDS-PAGE and staining according to standard procedures.

[3] = molecular target: T1, bovine pancreas trypsin; test: enzyme on hydrophobin-coated sheets, washed; chromogenic assay

T1 sequence (P00760 24-246): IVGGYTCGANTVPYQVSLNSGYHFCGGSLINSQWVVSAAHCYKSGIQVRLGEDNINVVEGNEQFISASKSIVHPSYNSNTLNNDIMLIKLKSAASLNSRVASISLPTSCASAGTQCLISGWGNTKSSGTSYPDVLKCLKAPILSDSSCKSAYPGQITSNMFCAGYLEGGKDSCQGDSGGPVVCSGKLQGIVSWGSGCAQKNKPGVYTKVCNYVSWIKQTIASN
Chain of BSA (bovine serum albumin) (P02769 25-607 limits assumed): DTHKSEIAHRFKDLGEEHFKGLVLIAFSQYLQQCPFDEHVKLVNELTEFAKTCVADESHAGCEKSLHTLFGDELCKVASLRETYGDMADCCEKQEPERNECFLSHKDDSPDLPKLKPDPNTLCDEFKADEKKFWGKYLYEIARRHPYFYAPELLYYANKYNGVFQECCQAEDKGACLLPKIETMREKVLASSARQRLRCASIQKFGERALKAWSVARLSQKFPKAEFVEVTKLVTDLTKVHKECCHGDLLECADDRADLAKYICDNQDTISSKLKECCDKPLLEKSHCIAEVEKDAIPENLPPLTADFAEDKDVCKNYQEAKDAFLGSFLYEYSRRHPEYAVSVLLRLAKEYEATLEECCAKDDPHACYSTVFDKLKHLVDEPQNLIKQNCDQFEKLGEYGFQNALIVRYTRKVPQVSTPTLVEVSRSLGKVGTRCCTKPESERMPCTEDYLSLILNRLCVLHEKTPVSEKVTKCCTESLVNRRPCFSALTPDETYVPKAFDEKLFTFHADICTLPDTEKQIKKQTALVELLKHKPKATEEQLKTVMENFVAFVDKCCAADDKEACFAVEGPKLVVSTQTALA

B1: SC3 hydrophobin of Schizophyllum commune (other, UniProt P16933 25-136, looked up)
chain: GGHPGTTTPPVTTTVTVTTPPSTTTIAAGGTCTTGSLSCCNQVQSASSSPVTALLGLLGIVLSDLNVLVGISCSPLTVIGVGGSGCSAQTVCCENTQFNGLINIGCTPINIL
notes: Used as a self-assembled film (alpha-helix state or beta-sheet state) coated on TEFLON, polyethylene, glass, microtiter wells or oil droplets; Natural SC3 is glycosylated (mannose) at its N-terminal side; also called hydrophobin SC3
binding result [1]: binds
binding result [2]: binds

B2: SC4 hydrophobin of Schizophyllum commune (other)
chain: AGQACNSGPVQCCNETTTVANAQKQGLLGGLLGVVVGPITGLVGLNCSPISVVGVLTGNSCTAQTVCCDHVTQNGLVNVGCTPISL
binding result [3]: binds
